Consider one molecule from article PMC4319893 (PLoS ONE, 2015).

The assay has as its target T1, SAP-97 PDZ1-2-3 (human, UniProt Q12959 220-554).
T1 construct: human SAP-97, residues 220-554; Synthetic DNA in a modified pRSET vector; source: E. coli BL21(DE3)pLysS, purified (His-Trap IMAC, MonoQ ion exchange)
In words: fluorescence polarisation; competition against the monomeric CRIPT probe; 50 mM TRIS, 100 mM NaCl, 1 mM EDTA, 1 mM DTT; Ki calculated according to Nikolovska-Coleska et al. To be noted: both partners purified.

T1 sequence (Q12959 220-554): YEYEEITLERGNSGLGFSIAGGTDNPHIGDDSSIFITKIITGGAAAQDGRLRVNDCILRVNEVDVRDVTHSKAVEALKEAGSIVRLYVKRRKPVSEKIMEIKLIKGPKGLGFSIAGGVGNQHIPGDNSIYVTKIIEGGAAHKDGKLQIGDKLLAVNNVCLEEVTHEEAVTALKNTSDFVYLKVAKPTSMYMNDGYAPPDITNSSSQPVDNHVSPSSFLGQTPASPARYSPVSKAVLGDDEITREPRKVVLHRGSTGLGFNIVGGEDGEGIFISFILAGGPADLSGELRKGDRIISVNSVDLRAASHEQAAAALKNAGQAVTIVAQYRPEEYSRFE

B1: CRIPT-06 (1) (peptide)
peptide: YKQTSV
notes: C-terminal hexapeptide of CRIPT; also called CRIPT hexapeptide; YKQTSV; source: synthetic peptide
Turning to B1, the inhibition constant (Ki) was 1000 nM.
